The source of these data is US8211429 (dated 2012).

Assay [1] deals with T1, murine NRP1 (mouse, UniProt P97333).
T1 chain: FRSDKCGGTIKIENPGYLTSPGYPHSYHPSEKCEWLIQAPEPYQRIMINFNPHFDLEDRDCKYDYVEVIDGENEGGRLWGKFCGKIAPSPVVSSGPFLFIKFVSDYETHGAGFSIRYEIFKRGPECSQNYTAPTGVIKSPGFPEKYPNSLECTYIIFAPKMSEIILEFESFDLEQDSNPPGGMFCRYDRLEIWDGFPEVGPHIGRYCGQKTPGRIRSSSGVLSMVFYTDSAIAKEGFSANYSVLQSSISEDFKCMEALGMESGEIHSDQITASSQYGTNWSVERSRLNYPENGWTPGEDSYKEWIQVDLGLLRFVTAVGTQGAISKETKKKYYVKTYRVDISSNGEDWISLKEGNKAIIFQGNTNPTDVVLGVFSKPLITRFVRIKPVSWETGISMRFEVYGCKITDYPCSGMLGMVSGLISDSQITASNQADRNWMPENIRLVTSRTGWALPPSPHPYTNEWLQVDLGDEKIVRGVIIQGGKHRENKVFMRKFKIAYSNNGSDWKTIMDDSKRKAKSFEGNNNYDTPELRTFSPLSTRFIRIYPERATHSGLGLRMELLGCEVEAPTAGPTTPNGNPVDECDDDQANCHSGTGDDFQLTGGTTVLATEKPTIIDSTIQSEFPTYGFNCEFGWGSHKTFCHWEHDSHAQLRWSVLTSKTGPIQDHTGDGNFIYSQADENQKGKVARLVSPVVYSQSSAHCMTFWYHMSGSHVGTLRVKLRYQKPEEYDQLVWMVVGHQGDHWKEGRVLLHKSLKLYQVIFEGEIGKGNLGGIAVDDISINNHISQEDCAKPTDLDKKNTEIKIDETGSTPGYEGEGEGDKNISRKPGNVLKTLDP
Kind of assay: competition phage ELISA. In general terms: In an ELISA, binding on a coated surface is turned into a signal by an enzyme label.

The target in assay [2] is human NRP1 (human, UniProt O14786). Put plainly: competition phage ELISA.

B1: YW107.4.58 (antibody, V domains shown)
VH: EVQLVESGGGLVQPGGSLRLSCAASGFTFSSYAMSWVRQAPGKGLEWVSQISPAGGYTNYADSVKGRFTISADTSKNTAYLQMNSLRAEDTAVYYCARELPYYRMSKVMDVWGQGTLVTVSS
VL: DIQMTQSPSSLSASVGDRVTITCRASQYISSYLAWYQQKPGKAPKLLIYGASSRASGVPSRFSGSGSGTDFTLTISSLQPEDFATYYCQQYKSSPRTFGQGTKVEIKR
With B1, the IC50 in assay [1] was determined as 3.5 nM; in assay [2] it was 0.73 nM.

B2: YW107.4.41 (antibody, V domains shown)
VH: EVQLVESGGGLVQPGGSLRLSCAASGFTFSSYAMSWVRQAPGKGLEWVSQISPAGGYTNYADSVKGRFTISADTSKNTAYLQMNSLRAEDTAVYYCARELPYYRMSKVMDVWGQGTLVTVSS
VL: DIQMTQSPSSLSASVGDRVTITCRASQWTHSYLAWYQQKPGKAPKLLIYGASRLESGVPSRFSGSGSGTDFTLTISSLQPEDFATYYCQQYFISPHTFGQGTKVEIKR
As to B2, the concentration for half-maximal inhibition (IC50) in assay [1] amounted to 5.5 nM; in assay [2] it was 0.43 nM.

B3: YW107.4.78 (antibody, V domains shown)
VH: EVQLVESGGGLVQPGGSLRLSCAASGFTFSSYAMSWVRQAPGKGLEWVSQISPAGGYTNYADSVKGRFTISADTSKNTAYLQMNSLRAEDTAVYYCARELPYYRMSKVMDVWGQGTLVTVSS
VL: DIQMTQSPSSLSASVGDRVTITCRASQYISSYLAWYQQKPGKAPKLLIYGASSRESGVPSRFSGSGSGTDFTLTISSLQPEDFATYYCQQYLSSPITFGQGTKVEIKR
With B3, the IC50 in assay [1] stood at 1.7 nM; in assay [2], 0.3 nM.

B4: YW107.4.20 (antibody, V domains shown)
VH: EVQLVESGGGLVQPGGSLRLSCAASGFTFSSYAMSWVRQAPGKGLEWVSQISPAGGYTNYADSVKGRFTISADTSKNTAYLQMNSLRAEDTAVYYCARELPYYRMSKVMDVWGQGTLVTVSS
VL: DIQMTQSPSSLSASVGDRVTITCRASQRTHSYLAWYQQKPGKAPKLLIYGASSRASGVPSRFSGSGSGTDFTLTISSLQPEDFATYYCQQYYGSPHTFGQGTKVEIKR
Take B4: the IC50 in assay [1] was 33 nM; in assay [2], 0.45 nM.

B5: YW107.4.33b (antibody, V domains shown)
VH: EVQLVESGGGLVQPGGSLRLSCAASGFTFSSYAMSWVRQAPGKGLEWVSQISPAGGYTNYADSVKGRFTISADTSKNTAYLQMNSLRAEDTAVYYCARELPYYRMSKVMDVWGQGTLVTVSS
VL: DIQMTQSPSSLSASVGDRVTITCRASQYIHSYLAWYQQKPGKAPKLLIYGASRRASGVPSRFSGSGSGTDFTLTISSLQPEDFATYYCQQYYGTPHTFGQGTKVEIKR
With B5, the IC50 in assay [1] is 7.8 nM; in assay [2], 0.58 nM.

B6: YW107.4.55 (antibody, V domains shown)
VH: EVQLVESGGGLVQPGGSLRLSCAASGFTFSSYAMSWVRQAPGKGLEWVSQISPAGGYTNYADSVKGRFTISADTSKNTAYLQMNSLRAEDTAVYYCARELPYYRMSKVMDVWGQGTLVTVSS
VL: DIQMTQSPSSLSASVGDRVTITCRASQLTHSYLAWYQQKPGKAPKLLIYGASSRASGVPSRFSGSGSGTDFTLTISSLQPEDFATYYCQQYYSSPLTFGQGTKVEIKR
Consider B6, for which the results for the IC50 in assay [1] and in assay [2] were 2 nM and 0.93 nM, respectively.

B7: YW107.4.42 (antibody, V domains shown)
VH: EVQLVESGGGLVQPGGSLRLSCAASGFTFSSYAMSWVRQAPGKGLEWVSQISPAGGYTNYADSVKGRFTISADTSKNTAYLQMNSLRAEDTAVYYCARELPYYRMSKVMDVWGQGTLVTVSS
VL: DIQMTQSPSSLSASVGDRVTITCRASQWIHSYLAWYQQKPGKAPKLLIYGASSSASGVPSRFSGSGSGTDFTLTISSLQPEDFATYYCQQYYSSPLTFGQGTKVEIKR
As for B7, the IC50 in assay [1] turned out to be 1.2 nM; in assay [2], 0.81 nM.

B8: YW107.4.51 (antibody, V domains shown)
VH: EVQLVESGGGLVQPGGSLRLSCAASGFTFSSYAMSWVRQAPGKGLEWVSQISPAGGYTNYADSVKGRFTISADTSKNTAYLQMNSLRAEDTAVYYCARELPYYRMSKVMDVWGQGTLVTVSS
VL: DIQMTQSPSSLSASVGDRVTITCRASQRISSYLAWYQQKPGKAPKLLIYGASRRESGVPSRFSGSGSGTDFTLTISSLQPEDFATYYCQQYKLSPLTFGQGTKVEIKR
On to B8, for which the IC50 in assay [1] was 12 nM; in assay [2], 2 nM.

B9: YW107.4.66 (antibody, V domains shown)
VH: EVQLVESGGGLVQPGGSLRLSCAASGFTFSSYAMSWVRQAPGKGLEWVSQISPAGGYTNYADSVKGRFTISADTSKNTAYLQMNSLRAEDTAVYYCARELPYYRMSKVMDVWGQGTLVTVSS
VL: DIQMTQSPSSLSASVGDRVTITCRASQYISSYLAWYQQKPGKAPKLLIYGASSRASGVPSRFSGSGSGTDFTLTISSLQPEDFATYYCQQYIVSPLTFGQGTKVEIKR
As for B9, the IC50 in assay [1] was 2.6 nM; in assay [2], 0.45 nM.

B10: YW107.4.53 (antibody, V domains shown)
VH: EVQLVESGGGLVQPGGSLRLSCAASGFTFSSYAMSWVRQAPGKGLEWVSQISPAGGYTNYADSVKGRFTISADTSKNTAYLQMNSLRAEDTAVYYCARELPYYRMSKVMDVWGQGTLVTVSS
VL: DIQMTQSPSSLSASVGDRVTITCRASQYISSYLAWYQQKPGKAPKLLIYGASRRESGVPSRFSGSGSGTDFTLTISSLQPEDFATYYCQQYLNSPLTFGQGTKVEIKR
As for B10, the figures for the IC50 in assay [1] and in assay [2] were 1.7 nM and 0.3 nM, respectively.

B11: YW107.4.33a (antibody, V domains shown)
VH: EVQLVESGGGLVQPGGSLRLSCAASGFTFSSYAMSWVRQAPGKGLEWVSQISPAGGYTNYADSVKGRFTISADTSKNTAYLQMNSLRAEDTAVYYCARELPYYRMSKVMDVWGQGTLVTVSS
VL: DIQMTQSPSSLSASVGDRVTITCRASQYISSYLAWYQQKPGKAPKLLIYGASRRASGVPSRFSGSGSGTDFTLTISSLQPEDFATYYCQQYIGSPITFGQGTKVEIKR
In turn, B11 registered an IC50 in assay [2] of 0.31 nM.

B12: YW107.4.59 (antibody, V domains shown)
VH: EVQLVESGGGLVQPGGSLRLSCAASGFTFSSYAMSWVRQAPGKGLEWVSQISPAGGYTNYADSVKGRFTISADTSKNTAYLQMNSLRAEDTAVYYCARELPYYRMSKVMDVWGQGTLVTVSS
VL: DIQMTQSPSSLSASVGDRVTITCRASQRIHSYLAWYQQKPGKAPKLLIYGASSRASGVPSRFSGSGSGTDFTLTISSLQPEDFATYYCQQYYISPLTFGQGTKVEIKR
On to B12, for which the IC50 was 26 nM in assay [1] and 1.8 nM in assay [2].

B13: YW107.4.85 (antibody, V domains shown)
VH: EVQLVESGGGLVQPGGSLRLSCAASGFTFSSYAMSWVRQAPGKGLEWVSQISPAGGYTNYADSVKGRFTISADTSKNTAYLQMNSLRAEDTAVYYCARELPYYRMSKVMDVWGQGTLVTVSS
VL: DIQMTQSPSSLSASVGDRVTITCRASQYISSYLAWYQQKPGKAPKLLIYGASSGESGVPSRFSGSGSGTDFTLTISSLQPEDFATYYCQQYIISPITFGQGTKVEIKR
Consider B13, for which the IC50 is 4 nM in assay [1] and 0.44 nM in assay [2].

B14: YW107.4.76b (antibody, V domains shown)
VH: EVQLVESGGGLVQPGGSLRLSCAASGFTFSSYAMSWVRQAPGKGLEWVSQISPAGGYTNYADSVKGRFTISADTSKNTAYLQMNSLRAEDTAVYYCARELPYYRMSKVMDVWGQGTLVTVSS
VL: DIQMTQSPSSLSASVGDRVTITCRASQWVHSYLAWYQQKPGKAPKLLIYGASSRASGVPSRFSGSGSGTDFTLTISSLQPEDFATYYCQQYYGTPITFGQGTKVEIKR
In the case of B14, the half-maximal inhibitory concentration (IC50) in assay [1] worked out at 3.9 nM; in assay [2] it was 0.34 nM.

B15: YW107.4.54 (antibody, V domains shown)
VH: EVQLVESGGGLVQPGGSLRLSCAASGFTFSSYAMSWVRQAPGKGLEWVSQISPAGGYTNYADSVKGRFTISADTSKNTAYLQMNSLRAEDTAVYYCARELPYYRMSKVMDVWGQGTLVTVSS
VL: DIQMTQSPSSLSASVGDRVTITCRASQPLHSYLAWYQQKPGKAPKLLIYGASSRASGVPSRFSGSGSGTDFTLTISSLQPEDFATYYCQQYYRSPLTFGQGTKVEIKR
Regarding B15, the IC50 in assay [1] turned out to be 2.7 nM; in assay [2] it was 0.84 nM.

B16: YW107.4.17 (antibody, V domains shown)
VH: EVQLVESGGGLVQPGGSLRLSCAASGFTFSSYAMSWVRQAPGKGLEWVSQISPAGGYTNYADSVKGRFTISADTSKNTAYLQMNSLRAEDTAVYYCARELPYYRMSKVMDVWGQGTLVTVSS
VL: DIQMTQSPSSLSASVGDRVTITCRASQYTHSYLAWYQQKPGKAPKLLIYGASSRASGVPSRFSGSGSGTDFTLTISSLQPEDFATYYCQQYYSSPVTFGQGTKVEIKR
B16: the IC50 in assay [1] is 6 nM; in assay [2], 0.24 nM.

B17: YW107.4.12 (antibody, V domains shown)
VH: EVQLVESGGGLVQPGGSLRLSCAASGFTFSSYAMSWVRQAPGKGLEWVSQISPAGGYTNYADSVKGRFTISADTSKNTAYLQMNSLRAEDTAVYYCARELPYYRMSKVMDVWGQGTLVTVSS
VL: DIQMTQSPSSLSASVGDRVTITCRASQYTHSYLAWYQQKPGKAPKLLIYGASSRASGVPSRFSGSGSGTDFTLTISSLQPEDFATYYCQQYYSSPITFGQGTKVEIKR
Consider B17, for which the results for the IC50 in assay [1] and in assay [2] were 3.4 nM and 0.1 nM, respectively.

The IC50 is the concentration that gives 50% inhibition. Read a high IC50 as a need for much substance.
